Measured values as given in patent US20250145977A1 (THERIPION, published 2025).

T1: Human CD40 ligand (BioLegend) (human, UniProt P29965 113-261, limits assumed)
T1 construct: Coated on the ELISA plate at 2 ug/ml; also called CD154; gp39
T1 sequence (looked up): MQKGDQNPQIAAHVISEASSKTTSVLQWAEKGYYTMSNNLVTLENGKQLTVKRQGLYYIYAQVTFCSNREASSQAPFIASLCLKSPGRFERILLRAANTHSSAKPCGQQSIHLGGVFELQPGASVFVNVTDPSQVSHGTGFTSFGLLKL


Biological target: T1, Human CD40 ligand (BioLegend)
Test: ELISA on plate-immobilized human CD40 ligand (2 ug/ml coat); serial dilutions of HEK293 transfection supernatant; detection with HRP goat anti-human IgG Fc; x axis is fold dilution, no concentration given

Row | binding result | Binder
1 | binds | [hCD40 EC]-(g4s)4-[SSShinge-P238S Fc] (wild-type CD40-Fc) (Fc fusion, Tested as HEK293 transfection supernatant; also called CD40WT-Fc) EPPTACREKQYLINSQCCSLCQPGQKLVSDCTEFTETECLPCGESEFLDTWNRETHCHQHKYCDPNLGLRVQQKGTSETDTICTCEEGWHCTSEACESCVLHRSCSPGFGVKQIATGVSDTICEPCPVGFFSNVSSAFEKCHPWTSCETKDLVVQQAGTNKTDVVCGPDLSGGGGSGGGGSGGGGSGGGGSTGLEPKSSDKTHTSPPSPAPELLGGSSVFLFPPKPKDTLMISRTPEVTCVVVDVSHEDPEVKFNWYVDGVEVHNAKTKPREEQYNSTYRVVSVLTVLHQDWLNGKEYKCKVSNKALPASIEKTISKAKGQPREPQVYTLPPSRDELTKNQVSLTCLVKGFYPSDIAVEWESNGQPENNYKTTPPVLDSDGSFFLYSKLTVDKSRWQQGNVFSCSVMHEALHNHYTQKSLSLSPGK
2 | binds | hVK3LP-[hCD40EC E64Y-K81T-P85Y]-(g4s)4-[SSShinge-P238S Fc]-NGS-[PON1 Q192K] (Fc fusion, Tested as unpurified HEK293 transfection supernatant; also called CD40TM-Fc-P1-K; CD40-Fc-PON1 fusion protein) EPPTACREKQYLINSQCCSLCQPGQKLVSDCTEFTETECLPCGYSEFLDTWNRETHCHQHTYCDYNLGLRVQQKGTSETDTICTCEEGWHCTSEACESCVLHRSCSPGFGVKQIATGVSDTICEPCPVGFFSNVSSAFEKCHPWTSCETKDLVVQQAGTNKTDVVCGPDLSGGGGSGGGGSGGGGSGGGGSTGLEPKSSDKTHTSPPSPAPELLGGSSVFLFPPKPKDTLMISRTPEVTCVVVDVSHEDPEVKFNWYVDGVEVHNAKTKPREEQYNSTYRVVSVLTVLHQDWLNGKEYKCKVSNKALPASIEKTISKAKGQPREPQVYTLPPSRDELTKNQVSLTCLVKGFYPSDIAVEWESNGQPENNYKTTPPVLDSDGSFFLYSKLTVDKSRWQQGNVFSCSVMHEALHNHYTQKSLSLSPGKVDGASSPVNVSSPSVQDILFRNHQSSYQTRLNALREVQPVELPNCNLVKGIETGSEDLEILPNGLAFISSGLKYPGIKSFNPNSPGKILLMDLNEEDPTVLELGITGSKFDVSSFNPHGISTFTDEDNAMYLLVVNHPDAKSTVELFKFQEEEKSLLHLKTIRHKLLPNLNDIVAVGPEHFYGTNDHYFLDPYLKSWEMYLGLAWSYVVYYSPSEVRVVAEGFDFANGINISPDGKYVYIAELLAHKIHVYEKHANWTLTPLKSLDFNTLVDNISVDPETGDLWVGCHPNGMKIFFYDSENPPASEVLRIQNILTEEPKVTQVYAENGTVLQGSTVASVYKGKLLIGTVFHKALYCEL
